How the values were obtained:
[1] = molecular target: human TIGIT on Jurkat cells (TIGIT/NFAT reporter Jurkat cells, BPS Bioscience #60538; Promega TIGIT Effector Cells) (human) (UniProt Q495A1); test: cell-based or functional assay
[2] = molecular target: human TIGIT on Jurkat cells (TIGIT/NFAT reporter Jurkat cells, BPS Bioscience #60538; Promega TIGIT Effector Cells) (human) (UniProt Q495A1); test: flow cytometry, TIGIT/NFAT Jurkat cells, 10 ug/ml

Chain of human TIGIT on Jurkat cells (TIGIT/NFAT reporter Jurkat cells, BPS Bioscience #60538; Promega TIGIT Effector Cells) (human) (Q495A1 22-244): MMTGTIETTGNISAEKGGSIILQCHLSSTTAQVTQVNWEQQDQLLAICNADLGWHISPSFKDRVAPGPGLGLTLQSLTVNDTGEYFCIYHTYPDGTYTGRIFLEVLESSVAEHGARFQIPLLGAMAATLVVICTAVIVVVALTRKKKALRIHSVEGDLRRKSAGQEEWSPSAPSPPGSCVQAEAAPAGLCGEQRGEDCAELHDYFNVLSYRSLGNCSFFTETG

max. signal (% of 22G2) [1]: 116 % of 22G2
MFI [2]: 10700 MFI
B1: 43586p1.2.F6 (scFv, V domains shown)
VH: EVQLLESGEGLVQPGGSLRLSCAASGFTFTSYLMSWVRQAPGKGLEWVSTITWDGDRTYYADSVKGRFTISRDNSKNTLYLQMNSLRVGDTAVYYCAKHWTVFQYGMDVWGQGTTVTVSS
VL: QSVLTQPASASGTPGQRVTISCSGTISNIETKYVSWYQQLPGTAPKLLIYGNHQRPSGVPDRFSGSKSGTSASLAISGLQSEDEADYYCASWENDLKSWVFGGGTKLTVL
